# Measured values as given in patent US20240400689A1.
# “And” between values parts separate entries of the source, which are not always exact repeats. Equal values may be shown once.
# Assays:
# [1] = molecular target: human CD276 protein (human) (UniProt Q5ZPR3); test: cell-based or functional assay
# [2] = molecular target: human CD276 protein (human) (UniProt Q5ZPR3); test: FACS on SKOV3 cells
# human CD276 protein (human), sequence (Q5ZPR3 29-534): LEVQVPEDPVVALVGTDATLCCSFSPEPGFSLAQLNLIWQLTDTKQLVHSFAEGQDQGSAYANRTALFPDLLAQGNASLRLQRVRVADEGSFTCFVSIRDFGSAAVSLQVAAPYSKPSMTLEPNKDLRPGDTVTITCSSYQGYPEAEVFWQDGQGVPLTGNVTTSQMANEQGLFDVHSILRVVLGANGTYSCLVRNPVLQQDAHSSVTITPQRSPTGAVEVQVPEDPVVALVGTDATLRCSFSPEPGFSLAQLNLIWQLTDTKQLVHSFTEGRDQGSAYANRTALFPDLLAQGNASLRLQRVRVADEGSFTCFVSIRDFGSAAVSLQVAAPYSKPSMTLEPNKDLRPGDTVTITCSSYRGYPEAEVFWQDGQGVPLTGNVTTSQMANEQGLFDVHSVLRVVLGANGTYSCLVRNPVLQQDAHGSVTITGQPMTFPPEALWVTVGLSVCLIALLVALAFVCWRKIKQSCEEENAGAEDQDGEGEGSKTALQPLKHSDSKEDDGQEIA
Substance,EC50 of antibody induced CDC effect [1],"Top cytotoxicity (%), CDC [1]",MFI (Max) [2]
MGA271-WT Fc (antibody),8.91 nM and 9.64 nM,19.6% and 19.8%,
igG (antibody),,,115
